Assay results published in publication PMC4178060, “Recombinant p35 from Bacteria Can Form Interleukin (IL-)12, but Not IL-35” (PLoS ONE, 2014).
Residue numbers refer to the chain shown, from its start.

B1: recombinant murine p35 from bacteria (p35bac) (natural protein)
chain: RVIPVSGPARCLSQSRNLLKTTDDMVKTAREKLKHYSCTAEDIDHEDITRDQTSTLKTCLPLELHKNESCLATRETSSTTRGSCLPPQKTSLMMTLCLGSIYEDLKMYQTEFQAINAALQNHNHQQIILDKGMLVAIDELMQSLNHNGETLRQKPPVGEADPYRVKMKLCILLHAFSTRVVTINRVMGYLSSA
B2: p40 wildtype (murine p40, flag-tagged) (natural protein, mouse, UniProt P43432 23-335, looked up)
chain: MWELEKDVYVVEVDWTPDAPGETVNLTCDTPEEDDITWTSDQRHGVIGSGKTLTITVKEFLDAGQYTCHKGGETLSHSHLLLHKKENGIWSTEILKNFKNKTFLKCEAPNYSGRFTCSWLVQRNMDLKFNIKSSSSSPDSRAVTCGMASLSAEKVTLDQRDYEKYSVSCQEDVTCPTAEETLPIELALEARQQNKYENYSTSFFIRDIIKPDPPKNLQMKPLKNSQVEVSWEYPDSWSTPHSYFSLKFFVRIQRKKEKMKETEEGCNQKGAFLVEKTSTEVQCKGGNVCVQAQDRYYNSSCSKWACVPCRVRS
notes: murine p40 (IL-12 subunit beta); The supernatant holds monomer and disulfide-linked dimer; also called mp40; IL-12p40; source: HEK293, transiently transfected, conditioned supernatant

Assays:
[1] = target: T1, p40_(C197A) (murine p40, flag-tagged) (mouse) (UniProt P43432)
T1 sequence: B2 chain with C175A

[2] = target: the molecule itself; assay: non-reducing SDS-PAGE with Western blot; 20 µl conditioned supernatant of transiently transfected HEK293 cells separated by SDS-PAGE under non-reducing conditions; flag-specific antibody; disulfide-linked dimer

Binder | biological activity of IL-12 reconstituted with bacterially expressed p35, compared to IL-12 (Ba/F3-gp130-IL-12Rβ1-IL-12Rβ2 cells) (fold less active) [1] | stoichiometry N [2]
B1 | > 100 | –
B2 | – | 2
